Measurements reported in US20230140868A1, “COMPOSITIONS AND METHODS FOR TREATING CANCER” (Alpha Beta Holdings, LLC, priority 2020, published 2023).

Columns and labels:
[1] = tested on: tumor cells; assay: In vitro ADCC with TAMs isolated from mouse Lewis lung carcinoma tumors; assay type: cell-based; settings: effector: TAMs from LLC tumors grown in C57BL6 or athymic nude mice
Procedure: TAMs were isolated from tumor tissues as described (Kaneda, 2016). Tumors were dissociated in HBSS containing collagenase IV (Sigma, C5138), hyaluronidase (Sigma, H2654), dispase 11 (Roche, 04942078001), and DNase IV (Millipore, D5025) at 37° C. for 15 minutes. Cell suspensions were filtered through 70 μm cell strainers and washed with PBS. Single cell suspensions (10^6 cells/100 μl in 5% BSA in PBS) were incubated with Mouse BD Fc Block™ (BD Biosciences, 553142, 1:50) for 10 minutes at 4° C. and fluorescently labeled antibodies, CD11b (eBioscience, 17-0112-81, 1:100), and Ly-6G (eBioscience, 25-5931-81, 1:100), for one hour at 4° C. TAMs (CD11b-positive, Ly-6G-negative) were sorted.
(§1) We used the isolated macrophages as effector cells in an antibody-dependent cellular-cytotoxicity (ADCC) assay. […] The ratio of dead target cells (PI-positive) to the total target cell population (CFSE-positive) was calculated as described (Bracher, 2007).

[2] = tested on: tumor cells; assay: In vitro ADCC with human monocyte-derived macrophages from healthy donor blood (LM609); assay type: cell-based; settings: effector: human monocyte-derived macrophages from healthy donor blood
Procedure: Human peripheral blood mononuclear cells (PBMCs) and macrophages were isolated using leukoreduction system chambers (LRSC) purchased from the San Diego Blood Bank. PBMCs were isolated from LRSC using Histopaque-1083 (Sigma, 10831) following the manufacturer's protocol. To obtain macrophages, PBMCs were incubated in tissue culture plates with human M-CSF (Peprotech, 300-25) for 5 days.
as §1

[3] = tested on: αvβ3-expressing human pancreatic xenograft tumors; assay: αvβ3-expressing human pancreatic xenograft with or without macrophage depletion; assay type: in vivo, nude mice
Text: (§2) Successful depletion of macrophages by clodronate treatment was confirmed by staining tumor sections for the mouse macrophage marker F4/80.

[4] = tested on: αvβ3-expressing human lung xenograft tumors; assay: αvβ3-expressing human lung xenograft with or without macrophage depletion; assay type: in vivo, nude mice
Text: as §2

[5] = tested on: αvβ3-expressing human lung cancer cells; assay: In vitro ADCC, primary human monocyte-derived macrophages as effector cells (FIG. 10A); assay type: cell-based; settings: increasing E:T
Text: (A) In vitro ADCC for primary human monocyte-derived macrophages as effector cells. (B). In vitro ADCC for human NK cells as effector cells. Graphs show effect of increasing effector-to-target ratio (E:T) on death of αvβ3-expressing human lung cancer cells.
This distinction could produce a therapeutic advantage by achieving matching between the antigen (integrin αvβ3) and the types of effector cells that are particularly enriched in αvβ3-expressing tumors, such as macrophages.

[6] = target: T1, integrin αvβ3 (Mus musculus, UniProt O54890+P43406); settings: mouse cells; Cheresh, 1987; cited from earlier work
T1 sequence (P43406 31-885 limits assumed): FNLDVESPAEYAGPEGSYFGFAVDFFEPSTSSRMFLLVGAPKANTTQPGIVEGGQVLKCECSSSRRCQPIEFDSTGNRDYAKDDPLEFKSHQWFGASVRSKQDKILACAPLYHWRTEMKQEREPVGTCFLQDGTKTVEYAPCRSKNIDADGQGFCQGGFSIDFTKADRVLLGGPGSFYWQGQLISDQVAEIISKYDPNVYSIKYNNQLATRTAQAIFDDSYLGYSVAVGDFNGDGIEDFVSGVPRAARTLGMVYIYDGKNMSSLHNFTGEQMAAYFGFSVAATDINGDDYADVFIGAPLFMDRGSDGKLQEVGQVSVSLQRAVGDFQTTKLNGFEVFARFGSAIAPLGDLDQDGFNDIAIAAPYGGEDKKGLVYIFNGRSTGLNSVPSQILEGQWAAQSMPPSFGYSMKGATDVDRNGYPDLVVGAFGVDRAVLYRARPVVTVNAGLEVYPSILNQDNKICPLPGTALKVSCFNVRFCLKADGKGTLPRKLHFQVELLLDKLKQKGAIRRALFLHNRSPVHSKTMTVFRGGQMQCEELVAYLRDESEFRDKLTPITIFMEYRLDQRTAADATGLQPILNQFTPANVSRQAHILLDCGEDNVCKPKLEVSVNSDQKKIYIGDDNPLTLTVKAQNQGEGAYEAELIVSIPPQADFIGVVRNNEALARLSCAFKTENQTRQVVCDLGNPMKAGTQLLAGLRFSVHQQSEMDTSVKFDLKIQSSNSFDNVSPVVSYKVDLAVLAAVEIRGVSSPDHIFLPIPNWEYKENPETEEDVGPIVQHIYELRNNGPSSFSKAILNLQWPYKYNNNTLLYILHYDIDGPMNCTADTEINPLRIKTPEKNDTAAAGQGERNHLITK
T1 sequence (P43406 887-1044 limits assumed): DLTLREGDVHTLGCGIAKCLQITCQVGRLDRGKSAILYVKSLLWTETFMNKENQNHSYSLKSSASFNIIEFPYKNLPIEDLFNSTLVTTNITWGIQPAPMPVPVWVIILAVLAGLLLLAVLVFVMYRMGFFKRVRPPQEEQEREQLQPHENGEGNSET
T1 sequence (O54890 26-787): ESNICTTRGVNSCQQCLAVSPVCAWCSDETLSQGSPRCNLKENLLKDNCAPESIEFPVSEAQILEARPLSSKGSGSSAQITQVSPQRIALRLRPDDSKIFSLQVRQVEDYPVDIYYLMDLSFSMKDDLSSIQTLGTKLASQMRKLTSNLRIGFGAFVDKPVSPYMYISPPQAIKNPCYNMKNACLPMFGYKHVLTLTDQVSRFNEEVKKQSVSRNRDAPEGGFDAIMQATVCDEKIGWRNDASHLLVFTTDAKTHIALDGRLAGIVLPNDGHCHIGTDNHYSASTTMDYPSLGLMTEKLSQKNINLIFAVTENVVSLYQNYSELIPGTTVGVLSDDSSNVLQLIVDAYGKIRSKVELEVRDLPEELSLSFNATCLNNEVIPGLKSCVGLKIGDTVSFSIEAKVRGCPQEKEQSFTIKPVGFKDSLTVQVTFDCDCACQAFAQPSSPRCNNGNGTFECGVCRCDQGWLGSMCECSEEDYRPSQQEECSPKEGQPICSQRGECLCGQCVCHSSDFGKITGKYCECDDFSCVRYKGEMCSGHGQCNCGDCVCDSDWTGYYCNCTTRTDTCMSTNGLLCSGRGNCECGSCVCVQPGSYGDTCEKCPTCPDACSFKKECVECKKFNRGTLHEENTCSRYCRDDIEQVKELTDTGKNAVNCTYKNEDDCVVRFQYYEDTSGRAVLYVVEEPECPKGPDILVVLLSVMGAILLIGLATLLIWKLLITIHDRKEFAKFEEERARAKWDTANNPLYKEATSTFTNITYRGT

[7] = macrophage depletion using clodronate liposomes
[8] = reported in FIG. 2A of Wettersten et al.

B1: LM609: mouse monoclonal IgG1K antibody that recognizes human integrin αvβ3; SEQ ID NO:11 and 12 (antibody)
heavy: MNFGLRLIFLVLTLKGVKCEVQLVESGGGLVKPGGSLKLSCAASGFAFSSYDMSWVRQIPEKRLEWVAKVSSGGGSTYYLDTVQGRFTISRDNAKNTLYLQMSSLNSEDTAMYYCARHNYGSFAYWGQGTLVTVSAAKTTPPSVYPLAPGSAAQTNSMVTLGCLVKGYFPEPVTVTWNSGSLSSGVHTFPAVLQSDLYTLSSSVTVPSSTWPSETVTCNVAHPASSTKVDKKIVPRDCGCKPCICTVPEVSSVFIFPPKPKDVLTITLTPKVTCVVVDISKDDPEVQFSWFVDDVEVHTAQTQPREEQFNSTFRSVSELPIMHQDWLNGKEFKCRVNSAAFPAPIEKTISKTKGRPKAPQVYTIPPPKEQMAKDKVSLTCMITDFFPEDITVEWQWNGQPAENYKNTQPIMDTDGSYFVYSKLNVQKSNWEAGNTFTCSVLHEGLHNHHTEKSLSHSPGK
light: MVFTPQILGLMLFWISASRGDIVLTQSPATLSVTPGDSVSLSCRASQSISNHLHWYQQKSHESPRLLIKYASQSISGIPSRFSGSGSGTDFTLSINSVETEDFGMYFCQQSNSWPHTFGGGTKLEIKRADAAPTVSIFPPSSEQLTSGGASVVCFLNNFYPKDINVKWKIDGSERQNGVLNSWTDQDSKDSTYSMSSTLTLTKDEYERHNSYTCEATHKTSTSPIVKSFNRNEC
modifications: mAb LM609-mIgG1-kappa Heavy chain; mAb LM609-mIgG1-kappa Light chain
- ADCC activity [1]: robust ADCC activity
- ADCC (tumor cell killing) [2]: could also kill tumor cells
- anti-tumor effect after macrophage depletion [3, 7]: completely blocked
- sensitivity of xenograft tumors to LM609 [3, 8]: highly sensitive
- anti-tumor effect after macrophage depletion [4, 7]: completely blocked
- sensitivity of xenograft tumors to LM609 [4, 8]: highly sensitive
- ADCC with human macrophages as effector cells [5]: able to induce ADCC
- recognition of integrin αvβ3 [6]: not mouse cells
